Results reported in patent US20030091594A1.

Experiments:
[1] = molecular target: IIIB-V3BaL Env on luciferase reporter virions (HIV-1); assay: cell-based or functional assay
[2] = molecular target: 8x-V3BaL Env (whole Env, on virions or effector cells) (HIV-1); assay: cell-based or functional assay
[3] = molecular target: CD4-induced (CD4i) monoclonal antibody 48d; assay: SPR (BIACORE 2000), MAb 48d amine-coupled to CM5 chip, gp120 as analyte, 25 C
[4] = molecular target: CD4-induced (CD4i) monoclonal antibody 17b; assay: SPR (BIACORE 2000), MAb 17b amine-coupled to CM5 chip, gp120 as analyte, 25 C

CD4-induced (CD4i) monoclonal antibody 17b
concentration for 50% neutralisation of luciferase reporter virus on GHOST-CCR5 cells [1]: 14 ng/mL
concentration for 90% neutralisation of luciferase reporter virus on GHOST-CCR5 cells [1]: 90 ng/mL
concentration for 50% neutralisation of luciferase reporter virus on GHOST-CCR5 cells [2]: 2 ng/mL
concentration for 90% neutralisation of luciferase reporter virus on GHOST-CCR5 cells [2]: 15 ng/mL

CD4-induced (CD4i) monoclonal antibody 48d
concentration for 50% neutralisation of luciferase reporter virus on GHOST-CCR5 cells [1]: > 5000 ng/mL
concentration for 90% neutralisation of luciferase reporter virus on GHOST-CCR5 cells [1]: > 5000 ng/mL
concentration for 50% neutralisation of luciferase reporter virus on GHOST-CCR5 cells [2]: 3 ng/mL
concentration for 90% neutralisation of luciferase reporter virus on GHOST-CCR5 cells [2]: > 200 ng/mL
percent neutralisation at 200 ng/ml [2]: 88%

8x gp120 (soluble gp120 of the HIV-1/IIIBx 8x Env clone) (from UniProt P04578 33-511)
Kd [3]: 6 nM
koff [3]: 0.001 s⁻¹
kon [3]: 200000 M⁻¹ s⁻¹
Kd [4]: 15 nM
koff [4]: 0.002 s⁻¹
kon [4]: 100000 M⁻¹ s⁻¹

monoclonal antibody 50.1
concentration for 50% neutralisation of reporter virus [1]: 95 ng/mL
concentration for 90% neutralisation of reporter virus [1]: 375 ng/mL
concentration for 50% neutralisation of reporter virus [2]: 45 ng/mL
concentration for 90% neutralisation of reporter virus [2]: 610 ng/mL
